Reference: patent publication US20200115416A1 (REGENTS OF THE UNIVERSITY OF MINNESOTA, published 2020)
Where two headings read alike, the source gives them in different places. Square brackets hold non-standard residues; d marks the D form.

B1: c[Pro-DArg-Phe-Phe-Dap-Ala-Phe-DPro] (peptide)
peptide: PRFFXAFP
modifications: head-to-tail cyclic; DArg at 2; Dap at 5; DPro at 8
B2: c[Pro-Arg-Phe-Phe-Asp-Ala-Phe-DPro] (peptide)
peptide: cyclo(PRFFDAF[dP])
B3: c[Pro-Arg-Phe-Phe-Glu-Ala-Phe-DPro] (peptide)
peptide: cyclo(PRFFEAF[dP])
B4: c[Pro-Arg-Phe-Phe-Asn-Ala-Asp-DPro] (peptide)
peptide: cyclo(PRFFNAD[dP])
SMILES: C[C@@H]1NC(=O)[C@H](CC(N)=O)NC(=O)[C@H](Cc2ccccc2)NC(=O)[C@H](Cc2ccccc2)NC(=O)[C@H](CCCNC(=N)N)NC(=O)[C@@H]2CCCN2C(=O)[C@H]2CCCN2C(=O)[C@H](CC(=O)O)NC1=O
B5: c[Pro-Arg-DPhe-Phe-Dap-Ala-Phe-DPro] (peptide)
peptide: PRFFXAFP
modifications: head-to-tail cyclic; DPhe at 3; Dap at 5; DPro at 8

Key:
[1] = biological target: T1, mouse melanocortin-3 receptor (mouse, UniProt P33033 1-323); assay: cell-based or functional assay
[2] = biological target: T2, mouse melanocortin-5 receptor (mouse, UniProt P41149 1-325); assay: cell-based or functional assay
[3] = biological target: T3, mouse melanocortin-4 receptor (mouse, UniProt P56450 1-332); assay: cell-based or functional assay
[4] = biological target: T4, mouse melanocortin-1 receptor (mouse, UniProt Q01727 1-315); assay: cell-based or functional assay
[5] = biological target: T5, human melanocortin-4 receptor (human, UniProt P32245 1-332); assay: displacement of 125I-NDP-MSH, HEK293 cells expressing hMC4R
T5 construct: whole, on cells; in the thallium flux assay co-expressed with Kir7.1 (M125R); also called hMC4R; wildtype hMC4R
Method: (§1) Competitive binding affinity experiments were performed on HEK-293 cells stably expressing the wildtype hMC4R. […] The assay media was carefully aspirated and cells were washed once with assay buffer. Cell were lysed with 500 μL 0.1 M NaOH and 500 μL 1% Triton X-100 for a minimum of 10 min. […] All experiments were performed with duplicate data points and in at least two independent experimental replicates. […] Concentration-response curves and IC₅₀ values were generated and analyzed by the PRISM program (version 4.0. GraphPad Inc.) by a nonlinear regression method. The standard error of the mean (SEM) was derived from the IC₅₀ values from at least two independent experimental replicates.

[6] = biological target: T1, mouse melanocortin-3 receptor; assay: cell-based or functional assay; remark: listed apart in the source
[7] = biological target: T2, mouse melanocortin-5 receptor; assay: cell-based or functional assay; remark: listed apart in the source
[8] = biological target: T3, mouse melanocortin-4 receptor; assay: cell-based or functional assay; remark: listed apart in the source
[9] = biological target: T4, mouse melanocortin-1 receptor; assay: cell-based or functional assay; remark: listed apart in the source
[10] = biological target: T5, human melanocortin-4 receptor; assay: displacement of 125I-AGRP, HEK293 cells expressing hMC4R
Method: as §1

[11] = biological target: T1, mouse melanocortin-3 receptor; assay: cell-based or functional assay; remark: listed apart in the source
[12] = biological target: T2, mouse melanocortin-5 receptor; assay: cell-based or functional assay; remark: listed apart in the source
[13] = biological target: T3, mouse melanocortin-4 receptor; assay: cell-based or functional assay; remark: listed apart in the source
[14] = biological target: T4, mouse melanocortin-1 receptor; assay: cell-based or functional assay; remark: listed apart in the source

T1 sequence (P33033 whole entry): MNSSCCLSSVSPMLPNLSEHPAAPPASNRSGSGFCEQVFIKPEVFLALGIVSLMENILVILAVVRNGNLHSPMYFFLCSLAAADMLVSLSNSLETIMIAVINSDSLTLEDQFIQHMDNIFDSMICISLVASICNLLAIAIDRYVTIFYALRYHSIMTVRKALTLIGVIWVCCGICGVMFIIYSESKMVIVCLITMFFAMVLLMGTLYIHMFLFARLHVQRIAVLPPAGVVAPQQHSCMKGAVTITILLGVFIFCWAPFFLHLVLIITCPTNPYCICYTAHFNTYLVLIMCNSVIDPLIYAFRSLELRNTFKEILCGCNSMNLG
T4 sequence (Q01727 whole entry): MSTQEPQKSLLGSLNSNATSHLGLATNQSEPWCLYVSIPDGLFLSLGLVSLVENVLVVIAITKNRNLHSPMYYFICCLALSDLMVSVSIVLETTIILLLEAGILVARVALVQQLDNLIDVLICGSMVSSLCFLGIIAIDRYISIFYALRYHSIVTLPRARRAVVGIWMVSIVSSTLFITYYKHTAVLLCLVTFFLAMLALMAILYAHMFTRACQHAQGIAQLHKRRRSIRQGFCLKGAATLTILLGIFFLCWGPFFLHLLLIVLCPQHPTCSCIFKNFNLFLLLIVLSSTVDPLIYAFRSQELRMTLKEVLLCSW
T2 sequence (P41149 whole entry): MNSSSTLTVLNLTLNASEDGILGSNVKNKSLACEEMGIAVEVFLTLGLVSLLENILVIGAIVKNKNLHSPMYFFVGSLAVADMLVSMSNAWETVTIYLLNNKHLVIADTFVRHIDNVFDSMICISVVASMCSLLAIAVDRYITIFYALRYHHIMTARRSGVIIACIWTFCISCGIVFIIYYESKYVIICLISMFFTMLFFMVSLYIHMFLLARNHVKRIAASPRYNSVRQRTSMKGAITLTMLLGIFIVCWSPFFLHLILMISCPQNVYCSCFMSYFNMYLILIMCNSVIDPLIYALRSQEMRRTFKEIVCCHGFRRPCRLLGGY
T3 sequence (P56450 whole entry): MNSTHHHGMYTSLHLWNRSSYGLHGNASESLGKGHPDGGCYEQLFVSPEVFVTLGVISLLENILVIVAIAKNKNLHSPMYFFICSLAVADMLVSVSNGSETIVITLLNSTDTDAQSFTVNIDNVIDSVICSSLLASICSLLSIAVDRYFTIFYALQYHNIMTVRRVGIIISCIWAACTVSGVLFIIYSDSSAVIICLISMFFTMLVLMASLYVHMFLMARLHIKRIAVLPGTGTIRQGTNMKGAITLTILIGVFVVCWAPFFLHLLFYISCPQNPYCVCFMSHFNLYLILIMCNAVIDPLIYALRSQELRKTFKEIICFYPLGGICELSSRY

| Binder | antagonist pA2 (Schild, agonist NDP-MSH) [1] | agonist EC50 (cAMP AlphaScreen) [2] [µM] | % maximal NDP-MSH response at 100 µM (cAMP AlphaScreen) [3] [%] | IC50 [5] [µM] | agonist EC50 (cAMP AlphaScreen) [6] [µM] | antagonist pA2 (Schild, agonist NDP-MSH) [6] | agonist EC50 (cAMP AlphaScreen) [8] [µM] | antagonist pA2 (Schild, agonist NDP-MSH) [8] | agonist EC50 (cAMP AlphaScreen) [9] [µM] | IC50 [10] [µM] | other results |
| --- | --- | --- | --- | --- | --- | --- | --- | --- | --- | --- | --- |
| B1 | 5.7 | > 100 | 25 | – | – | – | – | – | – | – | % maximal NDP-MSH response at 100 µM (cAMP AlphaScreen) [1]: 25%; % maximal NDP-MSH response at 100 µM (cAMP AlphaScreen) [4]: 25% |
| B2 | – | – | – | 3.6 | > 100 | < 5.5 | > 100 | 6.79 | > 100 | 1.3 | inverse agonist, % change from basal cAMP at 100 µM [7]: -25% |
| B3 | – | – | – | 2.5 | > 100 | < 5.5 | > 100 | 7 | 20.5 | 1.4 | inverse agonist apparent potency [7]: 0.7 µM; inverse agonist, % decrease from basal cAMP [7]: -10% |
| B4 | – | – | – | – | – | – | – | – | – | – | antagonist pA2 (Schild, agonist NDP-MSH) [11]: < 5.5; inverse agonist, % change from basal cAMP at 100 µM [12]: -25%; antagonist pA2 (Schild, agonist NDP-MSH) [13]: < 5.5; % activation at 100 µM (cAMP AlphaScreen) [14]: 40% |
| B5 | 5.92 | > 100 | 20 | – | – | – | – | – | – | – | agonist EC50 (cAMP AlphaScreen) [1]: > 100 µM; agonist EC50 (cAMP AlphaScreen) [4]: 0.23 µM |
